Laboratory results reported in US20260193376A1 (Novo Nordisk, published 2026).
Substitutions are numbered along the chain they refer to.

B1: one-armed (OA) mAb11-0965 (antibody, V domains shown)
VH: EVQLVESGGGLVQPGRSLRLSCAASKFTFHDYAMHWVRQAPGKGLEWVSGISWKGDIGGYADSVKGRFTISRDNAKNSLYLQMNSLRAEDTALYYCAKSYGSGSFYNAFDSWGQGTLVTVSS
VL: DIQMTQSPSTLSASVGDRVTITCRASQSISSWLAWYQQKPGKAPKFLIYKASKLERGTPSRFSGSGSGTEFTLTISSLQPDDFATYYCLEYSSYIRTFGQGTKVEIK
B2: one-armed (OA) mAb11-1021 (antibody, V domains shown)
VH: B1 VH with A61V
VL: B1 VL with E55D
B3: one-armed (OA) mAb11-1358 (antibody, V domains shown)
VH: B1 VH with R19K, K26G, H30D, A40V, K54R, A61V, M83L, A97V
VL: B1 VL with V15A, E55D, T72S
B4: one-armed (OA) mAb11-1275 (antibody, V domains shown)
VH: B1 VH with K26G, A40V, A61V, A75E, A97V
VL: B1 VL with K53R, E55D, T72S, Q79T
B5: one-armed (OA) mAb11-1501 (antibody, V domains shown)
VH: B1 VH with K26G, H30D, A40V, K54R, A61V, D62K, A97V
VL: B1 VL with E55D
B6: one-armed (OA) mAb11-1076 (antibody, V domains shown)
VH: B1 VH with K26G, A40V, A61V
VL: B1 VL
B7: one-armed (OA) mAb11-1276 (antibody, V domains shown)
VH: B1 VH with K26G, A40V, A61V, A75E, A97V
VL: B1 VL with K53R, E55D, T72S, Q79S
B8: one-armed (OA) mAb11-1286 (antibody, V domains shown)
VH: B1 VH with K26G, A40V, A61V, A75E, A97V
VL: B1 VL with K53R, E55D, T72S, S76Y, S77D, S92R
B9: one-armed (OA) mAb11-1495 (antibody, V domains shown)
VH: B1 VH with K26G, A40V, K54R, D62K, A97V
VL: B1 VL with E55D
B10: one-armed (OA) mAb11-1273 (antibody, V domains shown)
VH: B1 VH with K26G, A40V, A61V, A75E, A97V
VL: B1 VL with K53R, E55D, T72S, S77E
B11: one-armed (OA) mAb01-9697 (antibody, V domains shown)
VH: B1 VH with R19K, K26G, H30D, A40V, K54R, A61V, M83L, A97V
VL: B1 VL with K53R, T72S
B12: one-armed (OA) mAb11-1233 (antibody, V domains shown)
VH: B1 VH with K26G, T28K, A40V, A61V, A75E, A97V
VL: B1 VL with K53R, E55D, T72S
B13: one-armed (OA) mAb11-1091 (antibody, V domains shown)
VH: B1 VH with R19K, K26G, A40V, A61V
VL: B1 VL with E55D
B14: one-armed (OA) mAb11-1254 (antibody, V domains shown)
VH: B1 VH with K26G, A40V, A61V, A75D, A97V
VL: B1 VL with K53R, E55D, T72S
B15: one-armed (OA) mAb11-1262 (antibody, V domains shown)
VH: B1 VH with K26G, A40V, A61V, A75E, A97V
VL: B1 VL with S30Q, K53R, E55D, T72S
B16: one-armed (OA) mAb11-1268 (antibody, V domains shown)
VH: B1 VH with K26G, A40V, A61V, A75E, A97V
VL: B1 VL with K53R, E55D, S60K, T72S
B17: one-armed (OA) mAb11-1042 (antibody, V domains shown)
VH: B1 VH with R19K, A61V
VL: B1 VL
B18: one-armed (OA) mAb11-1360 (antibody, V domains shown)
VH: B1 VH with R19K, K26G, H30D, A40V, K54R, A61V, M83L, A97V
VL: B1 VL with F46L, K53R, T72S
B19: one-armed (OA) mAb11-1024 (antibody, V domains shown)
VH: B1 VH with A61V
VL: B1 VL
B20: one-armed (OA) mAb11-1502 (antibody, V domains shown)
VH: B1 VH with K26G, H30D, A40V, K54R, A61V, D62K, A97V
VL: B1 VL with F46L, E55D
B21: one-armed (OA) mAb11-1278 (antibody, V domains shown)
VH: B1 VH with K26G, A40V, A61V, A75E, A97V
VL: B1 VL with K53R, E55D, T72S, S92Q
B22: one-armed (OA) mAb01-9373 (antibody, V domains shown)
VH: B1 VH with R19K, K26G, A40V, K54R, G58I, A61V, M83L, A97V
VL: B1 VL with V15A, R18E, Q27K, K45R, K53R, E55D, S77H
B23: one-armed (OA) mAb11-1094 (antibody, V domains shown)
VH: B1 VH with R19K, K26G, A40V, A61V
VL: B1 VL
B24: one-armed (OA) mAb01-9696 (antibody, V domains shown)
VH: B1 VH with R19K, K26G, H30D, A40V, K54R, A61V, M83L, A97V
VL: B1 VL with V15A, K53R, E55D, T72S
B25: one-armed (OA) mAb11-1279 (antibody, V domains shown)
VH: B1 VH with K26G, A40V, A61V, A75E, A97V
VL: B1 VL with K53R, E55D, T72S, S92K
B26: one-armed (OA) mAb11-1389 (antibody, V domains shown)
VH: B1 VH with R19K, K26G, A61V
VL: B1 VL with V15A, K53R, E55D, T72S
B27: one-armed (OA) mAb11-1039 (antibody, V domains shown)
VH: B1 VH with R19K, A61V
VL: B1 VL with E55D
B28: one-armed (OA) mAb11-1033 (antibody, V domains shown)
VH: B1 VH with A40V, A61V
VL: B1 VL
B29: bimAb05-0745 (bispecific antibody, V domains shown)
VH 1: B1 VH with K26G, A40V, A61V, A75E, A97V
VL 1: B1 VL with K53R, E55D, T72S
VH 2: EVQLVQSGAEVKKPGESLRISCKGSGYSFSTSWIVWVRQMPGKGLEWMGMIDPSDSFTSYSPSFQGHVTISADKSISTAYLQWSSLKASDTAMYYCARLHYYNSEEFDVWGQGTLVTVSS
VL 2: EIVLTQSPGTLSLSPGERATLSCRASQSVSSSYLAWYQQKPGQAPRLLIYGQSSRTRGIPDRFSGSGSGTDFTLTISRLEPEDFAVYYCQQFGDSQLFTFGQGTKLEIK
B30: one-armed (OA) mAb01-9933 (antibody, V domains shown)
VH: B1 VH with R19K, K26G, H30D, A40V, A61V, M83L
VL: B1 VL with V15A, R18E, F46L, E55D, T58V, T72S, S77D
B31: one-armed (OA) mAb11-1288 (antibody, V domains shown)
VH: B1 VH with K26G, A40V, A61V, A75E, A97V
VL: B1 VL with K53R, E55D, S60Q, T72S, S76Y, S92N
B32: one-armed (OA) mAb11-1266 (antibody, V domains shown)
VH: B1 VH with K26G, A40V, A61V, A75E, A97V
VL: B1 VL with K53R, E55D, R56K, T72S
B33: one-armed (OA) mAb11-1204 (antibody, V domains shown)
VH: B1 VH with K26G, A40V, K54R, A61V, D62K, A97V
VL: B1 VL with R18E, T72S
B34: one-armed (OA) mAb11-1073 (antibody, V domains shown)
VH: B1 VH with K26G, A40V, A61V
VL: B1 VL with E55D
B35: one-armed (OA) mAb11-1499 (antibody, V domains shown)
VH: B1 VH with K26G, A40V, K54R, A61V, D62K, A97V
VL: B1 VL with E55D
B36: one-armed (OA) mAb11-1260 (antibody, V domains shown)
VH: B1 VH with K26G, A40V, A61V, A75E, A97V
VL: B1 VL with S28Q, K53R, E55D, T72S
B37: one-armed (OA) mAb01-9978 (antibody, V domains shown)
VH: B1 VH with K26G, A40V, A61V, A75E, A97V
VL: B1 VL with F46L, K53R, T72S
B38: one-armed (OA) mAb11-1259 (antibody, V domains shown)
VH: B1 VH with K26G, A40V, A61V, A75E, A97V
VL: B1 VL with S28K, K53R, E55D, T72S
B39: one-armed (OA) mAb11-1344 (antibody, V domains shown)
VH: B1 VH with R19K, K26G, H30D, A40V, A61V, M83L
VL: B1 VL with V15A, E55D, T72S
B40: one-armed (OA) mAb11-1282 (antibody, V domains shown)
VH: B1 VH with K26G, A40V, A61V, A75E, A97V
VL: B1 VL with K53R, E55D, T72S, Y94W
B41: one-armed (OA) mAb11-1030 (antibody, V domains shown)
VH: B1 VH with A40V, A61V
VL: B1 VL with E55D

What was measured:
[1] = molecular target: T1, human plasma-derived Factor IXa (human, UniProt P00740 47-191; P00740 227-461); test: cell-based or functional assay
T1 sequence (P00740 47-191, chain 1 of 2): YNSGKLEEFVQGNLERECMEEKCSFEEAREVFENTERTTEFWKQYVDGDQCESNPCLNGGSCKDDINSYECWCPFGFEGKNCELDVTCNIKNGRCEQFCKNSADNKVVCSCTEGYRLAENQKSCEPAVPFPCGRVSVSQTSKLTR
T1 sequence (P00740 227-461, chain 2 of 2): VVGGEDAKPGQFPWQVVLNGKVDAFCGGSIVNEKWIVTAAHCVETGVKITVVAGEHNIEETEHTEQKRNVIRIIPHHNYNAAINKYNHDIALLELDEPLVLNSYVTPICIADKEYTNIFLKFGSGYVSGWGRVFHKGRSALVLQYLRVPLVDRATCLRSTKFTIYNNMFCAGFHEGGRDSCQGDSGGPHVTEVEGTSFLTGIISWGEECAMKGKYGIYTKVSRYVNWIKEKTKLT

[2] = molecular target: T1, human plasma-derived Factor IXa; test: cell-based or functional assay; remark: listed apart in the source

Stimulation Index, FXa generation assay, 800 nM OA antibody [1] [fold] | also measured | Binder
2860 | – | B1
4650 | – | B2
2830 | – | B3
1840 | – | B4
– | Stimulation Index, FXa generation assay, 1600 nM OA antibody [1]: 10300 fold | B5
3590 | – | B6
1740 | – | B7
1820 | – | B8
– | Stimulation Index, FXa generation assay, 1600 nM OA antibody [1]: 7690 fold | B9
1540 | – | B10
– | Stimulation Index, FXa generation assay, 3200 nM OA antibody [1]: 6540 fold | B11
1700 | – | B12
5400 | – | B13
– | Stimulation Index, FXa generation assay, 760 nM OA antibody [1]: 1890 fold | B14
1950 | – | B15
1800 | – | B16
4320 | – | B17
1110 | – | B18
3650 | – | B19
– | Stimulation Index, FXa generation assay, 1600 nM OA antibody [1]: 5850 fold | B20
1690 | – | B21

Stimulation Index, FXa generation assay, 800 nM OA antibody [1] [fold] | also measured | Binder
– | Stimulation Index, FXa generation assay, 1600 nM OA antibody [1]: 1390 fold | B22
4080 | – | B23
– | Stimulation Index, FXa generation assay, 1600 nM OA antibody [1]: 5170 fold | B24
1560 | – | B25
5790 | – | B26
3960 | – | B27
5130 | – | B28
– | Maximum stimulation (fold), FXa generation assay with bispecific antibody; maximum at 7980 nM [2]: 21100 fold | B29
– | Stimulation Index, FXa generation assay, 3600 nM OA antibody [1]: 6440 fold | B30
2530 | – | B31
1700 | – | B32
– | Stimulation Index, FXa generation assay, 1600 nM OA antibody [1]: 9100 fold | B33
6150 | – | B34
– | Stimulation Index, FXa generation assay, 1600 nM OA antibody [1]: 9010 fold | B35
1760 | – | B36
– | Stimulation Index, FXa generation assay, 3600 nM OA antibody [1]: 3670 fold | B37
2000 | – | B38
4660 | – | B39
1460 | – | B40
5750 | – | B41
